Laboratory results as given in article PMC4260915, “Colorful Protein-Based Fluorescent Probes for Collagen Imaging” (PLoS ONE, 2014).

B1: mTurquoise2-CNA35 (domain or fragment)
chain: ARDISSTNVTDLTVSPSKIEDGGKTTVKMTFDDKNGKIQNGDMIKVAWPTSGTVKIEGYSKTVPLTVKGEQVGQAVITPDGATITFNDKVEKLSDVSGFAEFEVQGRNLTQTNTSDDKVATITSGNKSTNVTVHKSEAGTSSVFYYKTGDMLPEDTTHVRWFLNINNEKSYVSKDITIKDQIQGGQQLDLSTLNINVTGTHSNYYSGQSAITDFEKAFPGSKITVDNTKNTIDVTIPQGYGSYNSFSINYKTKITNEQQKEFVNNSQAWYQEHGKEEVNGKSFNHTVHNINANAGIEGTVKGELKVLKQDKDTKA
notes: CNA35: domains N1 and N2 of the A-region of Staphylococcus aureus collagen adhesion protein, amino acids 30-344; Order: His-tag, thrombin cleavage site, mTurquoise2, flexible linkage of about 20 amino acids, CNA35; 65.2 kDa; also called FP-CNA35; N-terminal fusion of mTurquoise2 to CNA35; not shown: mTurquoise2, N-terminal, kept
B2: mAmetrine-CNA35 (domain or fragment)
chain: B1 chain
notes: CNA35: domains N1 and N2 of the A-region of Staphylococcus aureus collagen adhesion protein, amino acids 30-344; Order: His-tag, thrombin cleavage site, mAmetrine, flexible linkage of about 20 amino acids, CNA35; 64.3 kDa; also called FP-CNA35; N-terminal fusion of mAmetrine to CNA35; not shown: mAmetrine, N-terminal, kept
B3: tdTomato-CNA35 (domain or fragment)
chain: B1 chain
notes: CNA35: domains N1 and N2 of the A-region of Staphylococcus aureus collagen adhesion protein, amino acids 30-344; Order: His-tag, thrombin cleavage site, tdTomato, flexible linkage of about 20 amino acids, CNA35; 92.5 kDa; also called FP-CNA35; N-terminal fusion of tdTomato to CNA35; not shown: tdTomato, N-terminal, kept
B4: mCherry-CNA35 (domain or fragment)
chain: B1 chain
notes: CNA35: domains N1 and N2 of the A-region of Staphylococcus aureus collagen adhesion protein, amino acids 30-344; Order: His-tag, thrombin cleavage site, mCherry, flexible linkage of about 20 amino acids, CNA35; 64.6 kDa; also called FP-CNA35; N-terminal fusion of mCherry to CNA35; not shown: mCherry, N-terminal, kept
B5: CNA35-tdTomato (domain or fragment)
chain: B1 chain
notes: CNA35: domains N1 and N2 of the A-region of Staphylococcus aureus collagen adhesion protein, amino acids 30-344; Order: His-tag, thrombin cleavage site, CNA35, flexible linkage of about 20 amino acids, tdTomato; 93.1 kDa; also called CNA35-FP; C-terminal fusion of tdTomato to CNA35; not shown: tdTomato, C-terminal, kept
B6: EGFP-CNA35 (domain or fragment)
chain: B1 chain
notes: CNA35: domains N1 and N2 of the A-region of Staphylococcus aureus collagen adhesion protein, amino acids 30-344; Order: His-tag, thrombin cleavage site, EGFP, flexible linkage of about 20 amino acids, CNA35; 65.0 kDa; also called N-terminal fusion of EGFP to CNA35; not shown: EGFP, N-terminal, kept
B7: CNA35-mCherry (domain or fragment)
chain: B1 chain
notes: CNA35: domains N1 and N2 of the A-region of Staphylococcus aureus collagen adhesion protein, amino acids 30-344; Order: His-tag, thrombin cleavage site, CNA35, flexible linkage of about 20 amino acids, mCherry; 64.7 kDa; also called CNA35-FP; C-terminal fusion of mCherry to CNA35; not shown: mCherry, C-terminal, kept
B8: CNA35-LSSmOrange (domain or fragment)
chain: B1 chain
notes: CNA35: domains N1 and N2 of the A-region of Staphylococcus aureus collagen adhesion protein, amino acids 30-344; Order: His-tag, thrombin cleavage site, CNA35, flexible linkage of about 20 amino acids, LSSmOrange; 64.7 kDa; also called CNA35-FP; C-terminal fusion of LSSmOrange to CNA35; not shown: LSSmOrange, C-terminal, kept
B9: CNA35-EGFP (domain or fragment)
chain: B1 chain
notes: CNA35: domains N1 and N2 of the A-region of Staphylococcus aureus collagen adhesion protein, amino acids 30-344; Order: His-tag, thrombin cleavage site, CNA35, flexible linkage of about 20 amino acids, EGFP; 65.1 kDa; also called CNA35-FP; C-terminal fusion of EGFP to CNA35; not shown: EGFP, C-terminal, kept
B10: CNA35-mAmetrine (domain or fragment)
chain: B1 chain
notes: CNA35: domains N1 and N2 of the A-region of Staphylococcus aureus collagen adhesion protein, amino acids 30-344; Order: His-tag, thrombin cleavage site, CNA35, flexible linkage of about 20 amino acids, mAmetrine; 64.4 kDa; also called CNA35-FP; C-terminal fusion of mAmetrine to CNA35; not shown: mAmetrine, C-terminal, kept
B11: CNA35-mTurquoise2 (domain or fragment)
chain: B1 chain
notes: CNA35: domains N1 and N2 of the A-region of Staphylococcus aureus collagen adhesion protein, amino acids 30-344; Order: His-tag, thrombin cleavage site, CNA35, flexible linkage of about 20 amino acids, mTurquoise2; 65.0 kDa; also called CNA35-FP; C-terminal fusion of mTurquoise2 to CNA35; not shown: mTurquoise2, C-terminal, kept
B12: LSSmOrange-CNA35 (domain or fragment)
chain: B1 chain
notes: CNA35: domains N1 and N2 of the A-region of Staphylococcus aureus collagen adhesion protein, amino acids 30-344; Order: His-tag, thrombin cleavage site, LSSmOrange, flexible linkage of about 20 amino acids, CNA35; 64.6 kDa; also called FP-CNA35; N-terminal fusion of LSSmOrange to CNA35; not shown: LSSmOrange, N-terminal, kept

Biological target: T1, Rat tail collagen type I (rat, UniProt P02454 152-1207; P02466 86-1125)
T1 construct: collagen alpha-1(I) chain, rat; collagen alpha-2(I) chain, rat; Immobilised as a collagen matrix formed on pH neutralisation; source: bought: Sigma-Aldrich, cat. no; C7661
T1 sequence (P02454 152-1207, chain 1 of 2): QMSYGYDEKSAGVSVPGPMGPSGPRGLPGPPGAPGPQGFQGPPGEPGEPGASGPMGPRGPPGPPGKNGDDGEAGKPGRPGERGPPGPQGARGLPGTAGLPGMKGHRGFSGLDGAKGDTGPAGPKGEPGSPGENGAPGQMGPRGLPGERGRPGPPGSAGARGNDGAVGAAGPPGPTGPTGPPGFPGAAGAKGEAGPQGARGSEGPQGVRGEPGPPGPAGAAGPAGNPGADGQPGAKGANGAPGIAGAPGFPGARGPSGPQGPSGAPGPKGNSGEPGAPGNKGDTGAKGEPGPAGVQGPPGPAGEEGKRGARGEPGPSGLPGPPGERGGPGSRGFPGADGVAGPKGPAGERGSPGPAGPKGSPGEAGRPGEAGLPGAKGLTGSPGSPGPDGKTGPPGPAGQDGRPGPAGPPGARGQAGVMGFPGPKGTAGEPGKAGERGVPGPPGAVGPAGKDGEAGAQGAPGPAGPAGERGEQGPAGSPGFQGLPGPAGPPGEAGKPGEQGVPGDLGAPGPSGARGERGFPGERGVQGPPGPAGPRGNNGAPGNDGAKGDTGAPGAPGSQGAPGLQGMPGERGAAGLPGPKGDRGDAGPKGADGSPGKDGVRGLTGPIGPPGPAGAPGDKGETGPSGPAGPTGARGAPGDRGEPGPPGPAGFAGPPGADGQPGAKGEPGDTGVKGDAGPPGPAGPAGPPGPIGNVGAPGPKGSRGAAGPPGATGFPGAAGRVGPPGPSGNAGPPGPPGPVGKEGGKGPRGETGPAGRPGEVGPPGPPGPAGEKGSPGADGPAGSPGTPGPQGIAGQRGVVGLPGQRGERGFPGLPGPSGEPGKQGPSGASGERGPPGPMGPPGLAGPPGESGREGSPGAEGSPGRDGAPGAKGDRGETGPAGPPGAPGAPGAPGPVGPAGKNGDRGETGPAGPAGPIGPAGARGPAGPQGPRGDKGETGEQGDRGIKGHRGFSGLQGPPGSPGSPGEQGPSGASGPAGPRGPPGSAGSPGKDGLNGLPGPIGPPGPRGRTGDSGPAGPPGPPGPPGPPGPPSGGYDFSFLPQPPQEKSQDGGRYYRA
T1 sequence (P02466 86-1125, chain 2 of 2): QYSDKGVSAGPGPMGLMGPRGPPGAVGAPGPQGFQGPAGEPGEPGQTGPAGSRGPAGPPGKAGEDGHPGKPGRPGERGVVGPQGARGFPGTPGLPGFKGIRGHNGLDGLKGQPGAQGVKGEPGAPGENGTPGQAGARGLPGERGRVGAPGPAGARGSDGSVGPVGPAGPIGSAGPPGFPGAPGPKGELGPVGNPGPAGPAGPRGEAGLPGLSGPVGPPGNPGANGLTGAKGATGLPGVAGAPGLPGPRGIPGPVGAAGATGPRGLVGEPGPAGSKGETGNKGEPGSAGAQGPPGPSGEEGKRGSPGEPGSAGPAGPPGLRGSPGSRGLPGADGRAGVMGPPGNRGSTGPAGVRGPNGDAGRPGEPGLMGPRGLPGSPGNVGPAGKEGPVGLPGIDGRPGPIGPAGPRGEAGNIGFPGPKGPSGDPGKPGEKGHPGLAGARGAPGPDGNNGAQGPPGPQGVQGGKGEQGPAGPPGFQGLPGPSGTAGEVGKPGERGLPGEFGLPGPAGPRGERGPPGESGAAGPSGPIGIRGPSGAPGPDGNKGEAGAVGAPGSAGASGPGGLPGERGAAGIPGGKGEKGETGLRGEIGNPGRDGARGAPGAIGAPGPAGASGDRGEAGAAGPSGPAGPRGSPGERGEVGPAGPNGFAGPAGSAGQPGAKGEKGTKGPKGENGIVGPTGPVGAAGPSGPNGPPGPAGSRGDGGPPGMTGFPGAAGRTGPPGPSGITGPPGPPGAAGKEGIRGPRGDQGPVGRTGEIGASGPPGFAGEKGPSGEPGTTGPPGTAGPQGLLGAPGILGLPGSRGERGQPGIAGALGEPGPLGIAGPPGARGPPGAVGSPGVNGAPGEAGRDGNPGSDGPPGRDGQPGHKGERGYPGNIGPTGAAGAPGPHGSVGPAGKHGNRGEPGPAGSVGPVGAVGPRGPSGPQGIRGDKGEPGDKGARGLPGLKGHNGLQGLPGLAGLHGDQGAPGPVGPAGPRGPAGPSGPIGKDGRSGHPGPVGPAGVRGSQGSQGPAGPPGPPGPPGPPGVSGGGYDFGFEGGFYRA
Assay: solid-phase collagen binding assay (fluorescence of bound probe, plate reader); rat tail collagen type I or BSA immobilised in wells of a 96-well plate, blocked with 2% BSA; probe dilutions 0.1–50 µM, 1–1.5 hours at room temperature; 20 mM HEPES pH 7.2, 150 mM NaCl; apparent overall Kd
Conditions: both partners purified

Row | Binder | Kd [nM]
1 | B1 | ~1000
2 | B2 | ~1000
3 | B3 | ~1000
4 | B4 | ~1000
5 | B5 | ~1000
6 | B6 | ~1000
7 | B7 | ~1000
8 | B8 | ~1000
9 | B9 | ~1000
10 | B10 | ~1000
11 | B11 | ~1000
12 | B12 | ~1000
